We go through three molecules from PMC11490872, “Drug-resistant menin variants retain high binding affinity and interactions with MLL1” (The Journal of Biological Chemistry, 2024).

Test [1] has as its system patients with MLL1-r and NPM1-mut acute leukemias. Conditions: cited from earlier work.
The target in test [2] is T1, menin^T349M bound to FLSN-MLL1^4-43 (Homo sapiens, UniProt O00255, T344M).
T1 construct: The gene encoding full-length human menin was cloned into a pET32a expression vector; thioredoxin-His6 (cleaved yes); made in house; host or cells: E. coli BL21(DE3); probe peptide from GenScript
T1 sequence (O00255 1-610 T344M): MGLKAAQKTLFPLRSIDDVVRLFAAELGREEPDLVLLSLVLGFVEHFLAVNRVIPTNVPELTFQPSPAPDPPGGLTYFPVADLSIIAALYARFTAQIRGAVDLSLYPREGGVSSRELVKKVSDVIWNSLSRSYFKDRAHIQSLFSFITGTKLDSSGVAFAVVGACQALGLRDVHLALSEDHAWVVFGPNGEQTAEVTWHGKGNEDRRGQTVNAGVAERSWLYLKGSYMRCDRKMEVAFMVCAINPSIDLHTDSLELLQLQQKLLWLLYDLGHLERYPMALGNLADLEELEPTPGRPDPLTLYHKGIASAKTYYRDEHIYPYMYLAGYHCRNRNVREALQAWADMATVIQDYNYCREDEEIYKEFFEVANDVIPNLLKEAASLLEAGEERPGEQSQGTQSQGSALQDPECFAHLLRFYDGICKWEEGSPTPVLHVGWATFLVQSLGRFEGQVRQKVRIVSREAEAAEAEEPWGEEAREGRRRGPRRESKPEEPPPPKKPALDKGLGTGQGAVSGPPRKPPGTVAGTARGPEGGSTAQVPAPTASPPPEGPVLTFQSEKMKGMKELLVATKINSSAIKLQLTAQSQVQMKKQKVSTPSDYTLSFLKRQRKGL
As to the kind of experiment: FP competition, displacement of FLSN-MLL1^4-43 from menin^T349M. Type of test: binding. How it is done: (§1) FP competition experiments used FLSN-MLL1^4-43 at 4 nM and menin at 4 nM against varying concentrations of unlabeled MLL1 peptides in FP buffer for IC50 determination. Protein-peptide complexes were incubated for 1 h before unlabeled peptide competitors were added to ensure complete binding. Unlabeled peptide competitors were incubated with the protein-peptide complexes for 3 h before measurement using the PHERAstar microplate reader ([25]). Experiments with Revumenib were run with the same steps and conditions but used 5% DMSO in the final solution. Kd and IC50 values were calculated using GraphPad Prism 10 by plotting mP values measured for each protein/MLL1 peptide or Revumenib as a function of protein/MLL1 peptide (or Revumenib) concentration ([25]). All FP binding and competition experiments were run in triplicate.

For test [3], the target named is T2, menin^M327I bound to FLSN-MLL1^4-43 (Homo sapiens, UniProt O00255, M322I).
T2 construct: The gene encoding full-length human menin was cloned into a pET32a expression vector; thioredoxin-His6 (cleaved yes); made in house; host or cells: E. coli BL21(DE3); probe peptide from GenScript
T2 sequence (O00255 1-610 M322I): T1 sequence (O00255 1-610 T344M) with M322I, M344T
The test can be described thus: FP competition, displacement of FLSN-MLL1^4-43 from menin^M327I. Type of test: binding. How it is done:
as §1

For a further test, the target named is T3, menin^T349M (Homo sapiens, UniProt O00255, T344M).
T3 construct: The gene encoding full-length human menin was cloned into a pET32a expression vector; thioredoxin-His6 (cleaved yes); made in house; host or cells: E. coli BL21(DE3)
T3 sequence (O00255 1-610 T344M): T1 sequence (O00255 1-610 T344M)
The test can be described thus: ITC binding of MLL1 fragments to menin^T349M. How it is done:
Menin and MLL1 fragments were dialyzed at 4 °C against a 50 mM sodium phosphate pH 7.5, 50 mM NaCl, 1 mM TCEP buffer, and degassed prior to measurement. The titrations were performed using the VP-ITC system (MicroCal) at 25 °C. The calorimetric cell, which contained menin (concentrations in the 5–10 μM range), was titrated with the MLL1^160 and MLL1^4-15 derived peptides (concentration range 40–100 μM) injected in 10-μL aliquots. Data was analyzed using Origin 7.0 (OriginLab) to obtain Kd, stoichiometry, entropy, and enthalpy ([2]). Experiments with WT, M327I, T349M, and G331R menin and MLL1^160 or MLL1^4-15 were run in duplicate. Experiments with G331D menin and MLL1^160 were run in duplicate while experiments with G331D and MLL1^4-15 were run in quadruplicate.

The mark [4] stands for this setting: Phase 1/2, AML patients with KMT2A (MLL1) rearrangements and NPM1 mutations.
The mark [5] stands for this setting: FP competition with MLL1 fragments, 3 h incubation, N = 3, Fig. 3B, read-out: T349M IC50.
The mark [6] stands for this setting: FP competition with MLL1 fragments, 3 h incubation, N = 3, Fig. 3B, read-out: M327I IC50.

Numbering of substitutions follows the chain as printed. Where two headings read alike, the source gives them in different places.

`CCN(C(=O)c1cc(F)ccc1Oc1cncnc1N1CC2(CCN(C[C@H]3CC[C@H](NS(=O)(=O)CC)CC3)CC2)C1)C(C)C` [Revumenib, reference compound]: in test [1] (setting [4]), the complete remission is listed as ~35% and the overall response rate is given as ~45%. In addition, the “rate of complete remission” value in test [1] (phase 1/2 first-in-human trials, MLL1-r and NPM1-mut acute leukemias) is “over 30%”. Besides, the IC50 in test [2] (FP competition, 5% DMSO, 3 h, N = 3, Fig. 4A, read-out: IC50 (nM), menin variant T349M) was found to be 125 ± 11 nM. In test [3] (FP competition, 5% DMSO, 3 h, N = 3, Fig. 4A, read-out: IC50 (nM), menin variant M327I), the IC50 was 535 ± 37 nM.
Take “MLL1^46: recombinant MLL1 fragment spanning amino acids 1–46, containing MBM1 and MBM2 (MAHSARWRFPARPGTTGGGGGGGRRGLGGAPRQRVPALLLPPGPPV; The printed 'Cys2' is Cys5 in the entry (peptide S4-A5-R6); Trx-His6 tag cl)”: the IC50 came out at 1.9 ± 0.5 nM in test [2] (setting [5]) and 1.7 ± 0.7 nM in test [3] (setting [6]).

B1: MLL1^160: N-terminal 160 amino acids of human MLL1, Cys2 mutated to alanine, recombinant (protein)
chain: MAHSARWRFPARPGTTGGGGGGGRRGLGGAPRQRVPALLLPPGPPVGGGGPGAPPSPPAVAAAAAAAGSSGAGVPGGAAAASAASSSSASSSSSSSSSASSGPALLRVGPGFDAALQVSAAIGTNLRRFRAVFGESGGGGGSGEDEQFLGFGSDEEVRVR
modifications: The printed 'Cys2' is the single N-terminal cysteine, Cys5 in the entry (peptide S4-A5-R6); Trx-His6 tag cleaved
Regarding B1, the values for the IC50 in test [2] (setting [5]) and in test [3] (setting [6]) were 4.4 ± 0.8 nM and 5.1 ± 0.2 nM, respectively. For the same molecule, the Kd with menin^T349M (ITC summary Fig. 1B, values marked *, n = 2, read-out: T349M Kd (nM), ITC) worked out at 2.6 ± 0.7 nM; with menin^T349M (ITC, representative binding isotherm Fig. 1A, 25 °C, read-out: Kd) it was 2.6 ± 0.7 nM.
